# T1: AP2-G D1 (Plasmodium falciparum, UniProt Q8I5I9 2123-2245)
# T1 sequence: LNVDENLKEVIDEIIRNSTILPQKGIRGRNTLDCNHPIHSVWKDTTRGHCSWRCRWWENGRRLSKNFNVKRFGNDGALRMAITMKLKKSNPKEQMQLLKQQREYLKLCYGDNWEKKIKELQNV
# Biological target: T1, AP2-G D1
# Test: gcPBM; about 25 ug protein; PBS, 1% milk, 0.2 mg/ml BSA, salmon testes DNA, 0.03% Triton X-100
# Conditions: tags: N-terminal GST (pGEX-4T-1), kept; label: surface-attached array probe
row,Binder,binding signal
1,XGTACX_site583 (dsDNA) DNA 1: ATAATATATATATAGTGTACATTTGAATATATTTGA DNA 2: TCAAATATATTCAAATGTACACTATATATATATTAT,"11.6 ln median PBM intensity, better of two orientations"
2,XGTACX_site1737 (dsDNA) DNA 1: AGATCTATTATTTTTTGTACTTATATATAAACTTAA DNA 2: TTAAGTTTATATATAAGTACAAAAAATAATAGATCT,"11.5 ln median PBM intensity, better of two orientations"
3,XGTACX_site5503 (dsDNA) DNA 1: TATATATATATAGGTTGTACATTTTGATGTTTACGT DNA 2: ACGTAAACATCAAAATGTACAACCTATATATATATA,"11.5 ln median PBM intensity, better of two orientations"
4,XGTACX_site4915 (dsDNA) DNA 1: AACGAAAACACTACGTGTACCAAACGTCCTACTAAC DNA 2: GTTAGTAGGACGTTTGGTACACGTAGTGTTTTCGTT,"11.5 ln median PBM intensity, better of two orientations"
5,XGTACX_site2720 (dsDNA) DNA 1: TCCTATTTTATATAATGTACATAAATATATTACATA DNA 2: TATGTAATATATTTATGTACATTATATAAAATAGGA,"11.5 ln median PBM intensity, better of two orientations"
6,XGTACX_site8691 (dsDNA) DNA 1: AAAAATATTTTGGTTTGTACATATATTTTTACAATA DNA 2: TATTGTAAAAATATATGTACAAACCAAAATATTTTT,"11.5 ln median PBM intensity, better of two orientations"
7,XGTACX_site6680 (dsDNA) DNA 1: TTTGTATATTATTTTAGTACATAACATTGAAGATAT DNA 2: ATATCTTCAATGTTATGTACTAAAATAATATACAAA,"11.4 ln median PBM intensity, better of two orientations"
8,XGTACX_site5139 (dsDNA) DNA 1: TATATACAGAATATATGTACATATTCATTTTATATT DNA 2: AATATAAAATGAATATGTACATATATTCTGTATATA,"11.4 ln median PBM intensity, better of two orientations"
9,XGTACX_site8657 (dsDNA) DNA 1: ATTAAGATGTATATATGTACATATTACATACATATA DNA 2: TATATGTATGTAATATGTACATATATACATCTTAAT,"11.4 ln median PBM intensity, better of two orientations"
10,XGTACX_site150 (dsDNA) DNA 1: ATATACATATATATATGTACTGAAAAGAAAAGAATT DNA 2: AATTCTTTTCTTTTCAGTACATATATATATGTATAT,"11.4 ln median PBM intensity, better of two orientations"
11,XGTACX_site84 (dsDNA) DNA 1: AATTAAATGGATAAATGTACATATGTGAATATATTT DNA 2: AAATATATTCACATATGTACATTTATCCATTTAATT,"11.4 ln median PBM intensity, better of two orientations"
12,XGTACX_site5309 (dsDNA) DNA 1: CTATACAATAAAAATTGTACATACATATATGTTATA DNA 2: TATAACATATATGTATGTACAATTTTTATTGTATAG,"11.3 ln median PBM intensity, better of two orientations"
13,XGTACX_site2945 (dsDNA) DNA 1: AAGCATAAAGTATATAGTACATATATATATATATAT DNA 2: ATATATATATATATATGTACTATATACTTTATGCTT,"11.3 ln median PBM intensity, better of two orientations"
14,XGTACX_site5737 (dsDNA) DNA 1: TAATGGAATACATATAGTACATAATATTACATACAT DNA 2: ATGTATGTAATATTATGTACTATATGTATTCCATTA,"11.3 ln median PBM intensity, better of two orientations"
15,XGTACX_site4821 (dsDNA) DNA 1: AATAAAACATCATCATGTACAAAATTCGTCTTTGTA DNA 2: TACAAAGACGAATTTTGTACATGATGATGTTTTATT,"10.6 ln median PBM intensity, better of two orientations"
16,XGTACX_site1414 (dsDNA) DNA 1: CTATAATATTATAACAGTACATAATATTATATATAT DNA 2: ATATATATAATATTATGTACTGTTATAATATTATAG,"10.8 ln median PBM intensity, better of two orientations"
17,XGTACX_site4930 (dsDNA) DNA 1: TGGAGGATAGTTCACAGTACCCAGTAACTCTACGGA DNA 2: TCCGTAGAGTTACTGGGTACTGTGAACTATCCTCCA,"10.9 ln median PBM intensity, better of two orientations"
18,XGTACX_site5487 (dsDNA) DNA 1: ACAAGTTTAACATTTCGTACTTATTGTGTTTTTTTT DNA 2: AAAAAAAACACAATAAGTACGAAATGTTAAACTTGT,"10.9 ln median PBM intensity, better of two orientations"
19,XGTACX_site3550 (dsDNA) DNA 1: AATATTAAAGAATAATGTACAAAATAAAAGCAAAGA DNA 2: TCTTTGCTTTTATTTTGTACATTATTCTTTAATATT,"10.9 ln median PBM intensity, better of two orientations"
20,XGTACX_site8705 (dsDNA) DNA 1: ACTAAAGTGTATCACTGTACAATTCTTCTCTTTTTT DNA 2: AAAAAAGAGAAGAATTGTACAGTGATACACTTTAGT,"10.9 ln median PBM intensity, better of two orientations"
21,XGTACX_site4926 (dsDNA) DNA 1: ATCAACATTATGGTTAGTACTTAGTGAATTGTTAAT DNA 2: ATTAACAATTCACTAAGTACTAACCATAATGTTGAT,"11 ln median PBM intensity, better of two orientations"
22,XGTACX_site5674 (dsDNA) DNA 1: TATCTAGTTACTCCTTGTACATAATAAATGATTTTT DNA 2: AAAAATCATTTATTATGTACAAGGAGTAACTAGATA,"11 ln median PBM intensity, better of two orientations"

row,Binder,binding signal
1,XGTACX_site8642 (dsDNA) DNA 1: CAAAGCATAGTATGATGTACAAATGTTCCTATAATA DNA 2: TATTATAGGAACATTTGTACATCATACTATGCTTTG,"11 ln median PBM intensity, better of two orientations"
2,XGTACX_site4853 (dsDNA) DNA 1: TTTGACACAATATTTTGTACGAAACTATTAATTCAA DNA 2: TTGAATTAATAGTTTCGTACAAAATATTGTGTCAAA,"11 ln median PBM intensity, better of two orientations"
3,XGTACX_site841 (dsDNA) DNA 1: TATATATATAATATATGTACTGATATGCTATTTACT DNA 2: AGTAAATAGCATATCAGTACATATATTATATATATA,"11 ln median PBM intensity, better of two orientations"
4,XGTACX_site8765 (dsDNA) DNA 1: TTCCCTCCTCAAAATTGTACTAGAATAATAACATAA DNA 2: TTATGTTATTATTCTAGTACAATTTTGAGGAGGGAA,"11 ln median PBM intensity, better of two orientations"
5,XGTACX_site1874 (dsDNA) DNA 1: GGTATAAAGAAATTTTGTACATATTTCTCCCTTTAA DNA 2: TTAAAGGGAGAAATATGTACAAAATTTCTTTATACC,"11.1 ln median PBM intensity, better of two orientations"
6,XGTACX_site4444 (dsDNA) DNA 1: ATATAATATTGAGTTTGTACATATATATATGAAGAT DNA 2: ATCTTCATATATATATGTACAAACTCAATATTATAT,"11.1 ln median PBM intensity, better of two orientations"
7,XGTACX_site1856 (dsDNA) DNA 1: ATAAATTATAATAACTGTACAAAAATAATATATTCA DNA 2: TGAATATATTATTTTTGTACAGTTATTATAATTTAT,"11.1 ln median PBM intensity, better of two orientations"
8,XGTACX_site3854 (dsDNA) DNA 1: AACCATTCTTCTAATTGTACATTGAAAAATCATGAT DNA 2: ATCATGATTTTTCAATGTACAATTAGAAGAATGGTT,"11.1 ln median PBM intensity, better of two orientations"
9,XGTACX_site2156 (dsDNA) DNA 1: AATATATATATATATAGTACATATTTTTATTCATTA DNA 2: TAATGAATAAAAATATGTACTATATATATATATATT,"11.1 ln median PBM intensity, better of two orientations"
10,XGTACX_site2105 (dsDNA) DNA 1: ATTAATTATTGTAATTGTACATTTTATATATATCCA DNA 2: TGGATATATATAAAATGTACAATTACAATAATTAAT,"11.1 ln median PBM intensity, better of two orientations"
11,XGTACX_site1104 (dsDNA) DNA 1: ACCATATAATTTTTTTGTACATAATGATTTTTTTTT DNA 2: AAAAAAAAATCATTATGTACAAAAAAATTATATGGT,"11.1 ln median PBM intensity, better of two orientations"
12,XGTACX_site972 (dsDNA) DNA 1: GAAACAAAATTATTTTGTACATATGACTGTAGATAT DNA 2: ATATCTACAGTCATATGTACAAAATAATTTTGTTTC,"11.2 ln median PBM intensity, better of two orientations"
13,XGTACX_site3331 (dsDNA) DNA 1: AAAAATTTTTTACATCGTACAGATATATATAATAAA DNA 2: TTTATTATATATATCTGTACGATGTAAAAAATTTTT,"11.2 ln median PBM intensity, better of two orientations"
14,XGTACX_site287 (dsDNA) DNA 1: AACAAAGAAAATACATGTACAAAAAATATTAACGAA DNA 2: TTCGTTAATATTTTTTGTACATGTATTTTCTTTGTT,"11.2 ln median PBM intensity, better of two orientations"
15,XGTACX_site7465 (dsDNA) DNA 1: TTTAATTCTTATATTTGTACAGATTCATAATTAAAT DNA 2: ATTTAATTATGAATCTGTACAAATATAAGAATTAAA,"11.2 ln median PBM intensity, better of two orientations"
16,XGTACX_site1009 (dsDNA) DNA 1: AATGTATTTATTTTTTGTACATATCGTGTGTGTATT DNA 2: AATACACACACGATATGTACAAAAAATAAATACATT,"11.2 ln median PBM intensity, better of two orientations"
17,XGTACX_site5075 (dsDNA) DNA 1: AAATGAAGATTTAAATGTACGAGAGGGTATACAAAT DNA 2: ATTTGTATACCCTCTCGTACATTTAAATCTTCATTT,"11.2 ln median PBM intensity, better of two orientations"
18,XGTACX_site8441 (dsDNA) DNA 1: AATAATATCTGAAAATGTACATTTTATTATAAACAT DNA 2: ATGTTTATAATAAAATGTACATTTTCAGATATTATT,"11.2 ln median PBM intensity, better of two orientations"
19,XGTACX_site7391 (dsDNA) DNA 1: TGTCAATCATATAAATGTACATTTTAAATGAGGTGT DNA 2: ACACCTCATTTAAAATGTACATTTATATGATTGACA,"11.2 ln median PBM intensity, better of two orientations"
20,XGTACX_site8398 (dsDNA) DNA 1: TAAAAAATAAAATAATGTACATATGAATTATATATT DNA 2: AATATATAATTCATATGTACATTATTTTATTTTTTA,"11.2 ln median PBM intensity, better of two orientations"
21,XGTACX_site5536 (dsDNA) DNA 1: TAACACACTAAGAAAAGTACTGATTAATATAATTTT DNA 2: AAAATTATATTAATCAGTACTTTTCTTAGTGTGTTA,"11.2 ln median PBM intensity, better of two orientations"

# Source: PMC11417369, “DNA sequence and chromatin differentiate sequence-specific transcription factor binding in the human malaria parasite Plasmodium falciparum”
